Entries after “also recorded” stand apart in the source; their conditions may differ.
System: human mammary epithelial cells
Experiment: Human mammary organoids stained for K8/K14, confocal microscopy
Assay type: cell-based
Details: Day 17 organoids; 50 ng/mL NRG3, 100 ng/mL AMH, 50 ng/mL GM-CSF
Experimental: Organoids were recovered from Matrigel by incubating in Corning Cell Recovery Solution for 1 hour with rocking on ice. Organoids were then fixed in 4% paraformaldehyde (PFA) at room temperature for 1 hour and stored in PBS at 4° C. After PFA fixation, antigen retrieval was performed by boiling the organoids in sodium citrate buffer for 20 minutes at 96° C. Organoids were permeabilized in a 0.5% Triton-X-100 solution in PBS overnight at room temperature. Samples were blocked by incubating overnight in a solution of 5% goat serum.
Following fixation and permeabilization, the organoids were incubated sequentially in primary antibody and secondary antibody solutions (as summarized in the table below) overnight at room temperature. Samples were counterstained in a 2 μg/ml DAPI solution for 20 minutes and dehydrated through stepwise incubations in solutions with increasing methanol concentrations (50%, 80%, then 100% methanol). Organoids were embedded in a solution of 2:1 Benzyl Benzoate-Benzyl alcohol (BABB), transferred to Ibidi glass bottom chamber slides and imaged using a Leica SP8 confocal laser scanning microscope. […]
The effects of modulating signaling through BMP were analyzed across multiple experiments in terms of total cell count among formed organoids (FIG. 9A) and the lineage balance of the cells among formed organoids (FIG. 9B). […]

B1: anti mullerian hormone (protein, UniProt P03971 452-560, looked up)
Muellerian-inhibiting factor: SAGATAADGPCALRELSVDLRAERSVLIPETYQANNCQGVCGWPQSDRNPRYGNHVVLLLKMQVRGAALARPPCCVPTAYAGKLLISLSEERISAHHVPNMVATECGCR
- lineage restriction of organoids formed (K8/K14 staining): bias the culture of mammary epithelial cells to form luminal-restricted organoids; also recorded: Luminal-restricted organoids were formed

Source: patent US20240191187A1, “MEDIA AND METHODS FOR GROWING MAMMARY ORGANOIDS” (STEMCELL TECHNOLOGIES CANADA INC., priority 2021, published 2024)
